The target of data set [1] is T1, Pit-1ΔN (UniProt P28069 105-291).
T1 sequence: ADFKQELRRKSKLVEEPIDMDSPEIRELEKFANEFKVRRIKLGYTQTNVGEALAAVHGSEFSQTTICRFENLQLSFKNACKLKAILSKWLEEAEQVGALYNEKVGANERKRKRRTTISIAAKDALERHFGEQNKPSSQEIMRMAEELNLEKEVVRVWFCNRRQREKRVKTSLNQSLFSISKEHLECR
Nature of the data set: competition.

Data set [2] deals with T1, Pit-1ΔN. The data set can be described thus: fluorescence anisotropy. For orientation: In fluorescence polarisation assays a small probe gives low polarisation when free and higher when bound to something large.
For the next data set, the target named is T2, Pit-1ΔNΔC (UniProt P28069 124-273).
T2 sequence: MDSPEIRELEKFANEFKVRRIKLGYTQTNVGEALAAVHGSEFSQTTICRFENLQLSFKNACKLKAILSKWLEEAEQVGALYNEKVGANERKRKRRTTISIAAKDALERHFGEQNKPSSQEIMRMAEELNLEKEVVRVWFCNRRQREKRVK
Nature of the data set: gel filtration. A general note: SEC sorts molecules by how far they enter the pores of the column.

In data set [3] the target is T3, Pit-1wt (UniProt P28069 1-291).
T3 sequence: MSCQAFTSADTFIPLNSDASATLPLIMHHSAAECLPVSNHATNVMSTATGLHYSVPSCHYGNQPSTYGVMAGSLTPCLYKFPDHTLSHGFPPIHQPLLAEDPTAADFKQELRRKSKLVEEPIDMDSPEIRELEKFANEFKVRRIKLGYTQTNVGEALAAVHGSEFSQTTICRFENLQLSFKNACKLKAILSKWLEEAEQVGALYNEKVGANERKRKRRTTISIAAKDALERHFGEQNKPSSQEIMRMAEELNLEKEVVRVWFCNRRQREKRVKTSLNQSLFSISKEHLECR
Nature of the data set: EMSA. A general note: A gel shift assay detects complexes by their altered migration in electrophoresis.

A further data set concerns the target T4, UHRF1 (UniProt Q96T88 1-793).
T4 sequence: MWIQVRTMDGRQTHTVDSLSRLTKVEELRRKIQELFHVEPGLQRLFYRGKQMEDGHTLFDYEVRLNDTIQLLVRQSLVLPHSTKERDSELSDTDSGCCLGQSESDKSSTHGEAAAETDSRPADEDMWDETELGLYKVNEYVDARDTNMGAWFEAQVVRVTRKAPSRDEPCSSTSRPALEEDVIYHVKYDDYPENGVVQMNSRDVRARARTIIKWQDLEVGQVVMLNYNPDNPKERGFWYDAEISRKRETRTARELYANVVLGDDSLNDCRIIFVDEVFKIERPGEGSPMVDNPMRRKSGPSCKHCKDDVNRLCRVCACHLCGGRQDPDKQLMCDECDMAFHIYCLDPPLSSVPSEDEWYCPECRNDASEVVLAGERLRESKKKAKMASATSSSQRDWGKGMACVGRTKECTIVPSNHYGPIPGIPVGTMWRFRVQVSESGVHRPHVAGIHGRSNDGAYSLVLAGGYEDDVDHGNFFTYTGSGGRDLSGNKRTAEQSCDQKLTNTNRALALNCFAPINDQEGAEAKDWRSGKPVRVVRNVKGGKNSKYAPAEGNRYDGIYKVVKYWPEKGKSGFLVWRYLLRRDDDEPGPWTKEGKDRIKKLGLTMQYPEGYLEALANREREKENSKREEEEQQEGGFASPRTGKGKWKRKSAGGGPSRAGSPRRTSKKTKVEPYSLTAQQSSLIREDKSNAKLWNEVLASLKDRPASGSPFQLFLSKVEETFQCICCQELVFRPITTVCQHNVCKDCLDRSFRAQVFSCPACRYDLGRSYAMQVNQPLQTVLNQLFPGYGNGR
The data set can be described thus: EMSA.

In data set [4] the target is T1, Pit-1ΔN. The data set can be described thus: competition. The source holds these as a separate data set.
For data set [5], the target named is T3, Pit-1wt. The data set can be described thus: fluorescence anisotropy.
Data set [6] deals with T1, Pit-1ΔN. Nature of the data set: fluorescence anisotropy. The source holds these as a separate data set.
Data set [7] deals with T1, Pit-1ΔN. The data set can be described thus: competition. The source holds these as a separate data set.

The source of these data is PMC5778499.

B1: uhGH (dsDNA)
DNA 1: GAGGAGCTTCTAAATTATCCATTAGCACAAGCCCGTCAGTGGCCCCATGCATAAATGTACACAGAAACAG
DNA 2: CTGTTTCTGTGTACATTTATGCATGGGGCCACTGACGGGCTTGTGCTAATGGATAATTTAGAAGCTCCTC
In the case of B1, the binding result with Pit-1ΔN [1] was “binds”.

B2: f4x (dsDNA)
DNA 1: CACCCATTCATTCATTCATTCAG
DNA 2: CTGAATGAATGAATGAATGGGTG
As for B2, the binding result in the data set with Pit-1ΔN [2] is recorded as “binds”.

B3: 4xCATT crystallization duplex (f4xCrystF/f4xCrystRC) (dsDNA)
DNA 1: CCATTCATTCATTCATTCGGA
DNA 2: CCGAATGAATGAATGAATGGT
For the molecule B3, in the data set with Pit-1ΔNΔC, the binding result is recorded as “binds”.

B4: 8xCATT 111 biotin (dsDNA)
DNA 1: TGTCCTCTTCCTGCTATGTCATGGCTTATCTTCTTTCACCCATTCATTCATTCATTCATTCATTCATTCATTCAGCAGTATTAGTCAATGTCTCTTGTATGCCTGGCACCT
DNA 2: AGGTGCCAGGCATACAAGAGACATTGACTAATACTGCTGAATGAATGAATGAATGAATGAATGAATGAATGGGTGAAAGAAGATAAGCCATGACATAGCAGGAAGAGGACA
As to B4, the binding result in the data set with Pit-1wt [3] is “binds”. Also, in the data set with UHRF1, the equilibrium dissociation constant (Kd) was > 1000 nM.

B5: u8x111 (dsDNA)
DNA 1: B4 DNA 1
DNA 2: B4 DNA 2
As to B5, the binding result with Pit-1ΔN [4] is “binds”.

B6: f8x (dsDNA)
DNA 1: CACCCATTCATTCATTCATTCATTCATTCATTCATTCAG
DNA 2: CTGAATGAATGAATGAATGAATGAATGAATGAATGGGTG
B6: the Kd with Pit-1wt [5] was 35 nM; in the data set with Pit-1ΔN [6], 27 nM.

B7: u5x99 (dsDNA)
DNA 1: TGTCCTCTTCCTGCTATGTCATGGCTTATCTTCTTTCACCCATTCATTCATTCATTCATTCAGCAGTATTAGTCAATGTCTCTTGTATGCCTGGCACCT
DNA 2: AGGTGCCAGGCATACAAGAGACATTGACTAATACTGCTGAATGAATGAATGAATGAATGGGTGAAAGAAGATAAGCCATGACATAGCAGGAAGAGGACA
With B7, the binding result in the data set with Pit-1ΔN [4] is given as “binds”.

B8: u4x (4xCATT) (dsDNA)
DNA 1: CACCCATTCATTCATTCATTCAG
DNA 2: CTGAATGAATGAATGAATGGGTG
On to B8, for which the binding result in the data set with Pit-1ΔN [7] is “binds”.

B9: f0x (dsDNA)
DNA 1: TGTCCTCTTCCTGCTATGTCATGGCTTATCTTCTTTCACCCAGCAGTATTAGTCAATGTCTCTTGTATGCCTGGCACCT
DNA 2: AGGTGCCAGGCATACAAGAGACATTGACTAATACTGCTGGGTGAAAGAAGATAAGCCATGACATAGCAGGAAGAGGACA
In the data set with Pit-1wt [5], B9 gave a Kd of 167 nM.

In general, Kd refers to the equilibrium constant for the complex coming apart. A low value points to tighter binding.
